Laboratory results taken from the RNAGym collection of RNA variant scans (doi:10.7554/elife.80360).

B1: HDV Ribozyme (parent)
chain: GGCCGGCAUGGUCCCAGCCUCCUCGCUGGCGCCGGCUGGGCAACAUUCCGAGGGGACCGUCCCCUCGGUAAUGGCGAAUGGGACCCA

Variants of: B1
Test: self-cleavage, relative activity (ratio to wild type); higher = more cleavage; co-transcriptional

Question: For GGCCGGCAUGGUCCCAGCCUCCUCGCUGGGGCCGGCUGGUCAACAUUCCGAGGGGACCGUCCCCUCGGUAAUGGCGAAUGGGACCCA [C30G G40U], which self-cleavage is on record?
Answer: 0.0514

Question: With GGCCGGCAUGGUCCCAGCCUCCUCGCUGGCGCCGGCUGGACAACUUUCCGAGGGGACCGUCCCCUCGGUAAUGGCGAAUGGGACCCA [G40A A45U] as the variant, how does the self-cleavage read?
Answer: 0.563

Question: With GGCCGGCAUGGUCCCAGCCUCCUCGCUGCCGCCGGCUGGGCAACAUUCCGAGGGGAGCGUCCCCUCGGUAAUGGCGAAUGGGACCCA [G29C C57G] as the variant, how does the self-cleavage read?
Answer: 0.133

Question: With GGCCGGCAUGGUCCCAGCCUCCACGCUGACGCCGGCUGGGCAACAUUCCGAGGGGACCGUCCCCUCGGUAAUGGCGAAUGGGACCCA [U23A G29A] as the variant, how does the self-cleavage read?
Answer: 0.0804

Question: With GGCCGGCAUGGUCCCAGCCUCCACGCUGCCGCCGGCUGGGCAACAUUCCGAGGGGACCGUCCCCUCGGUAAUGGCGAAUGGGACCCA [U23A G29C] as the variant, how does the self-cleavage read?
Answer: 0.0923

Question: With GGCCGGCAUGGUCCCAGCCUCCUCGCUGGCGCCGGCUGGGCAACAUUCCGACGGUACCGUCCCCUCGGUAAUGGCGAAUGGGACCCA [G52C G55U] as the variant, how does the self-cleavage read?
Answer: 0.966

Question: With GGGCGGCAUGGUCCCAGCCUCCUCGCUGGCGCGGGCUGGGCAACAUUCCGAGGGGACCGUCCCCUCGGUAAUGGCGAAUGGGACCCA [C3G C33G] as the variant, how does the self-cleavage read?
Answer: 0.128

Question: With GGCCGGCAUGGUCCCAGGCUCCUCGCUGGCGCCGGCUGGGCCACAUUCCGAGGGGACCGUCCCCUCGGUAAUGGCGAAUGGGACCCA [C18G A42C] as the variant, how does the self-cleavage read?
Answer: 0

Question: Which self-cleavage does the source give for GGCCGGCAUGGUCCCAGCCUCCUCGCUGGCGCCGGCUGGGCAACAUUCAGAGGGGACCGUCCCCUCGAUAAUGGCGAAUGGGACCCA [C49A G68A] here?
Answer: 0.742

Question: Which self-cleavage does the source give for GGCCGGCAUGGUCCCAGCCUCCUCGCUGGCGCCGGCUGGGCAACAUUCCGAGGGGACCGUCCCCUUGGUAAUGGCGAUUGGGACCCA [C66U A78U] here?
Answer: 0.309

Question: Which self-cleavage does the source give for GGCCGGCAUGGUCCCAGCCUCCUCGCUGGCGCCGGCUGGGCAAUAUUCCGAGGGGACCGUCCCCUCGGUAAUGCCGAAUGGGACCCA [C44U G74C] here?
Answer: 0.233

Question: For GGCCGGCAUGGUCCCAGCCUCGUCGCUGGCGCCGGCUGGGCAAUAUUCCGAGGGGACCGUCCCCUCGGUAAUGGCGAAUGGGACCCA [C22G C44U], which self-cleavage is on record?
Answer: 0.0361

Question: Which self-cleavage does the source give for GGCCGGCAUGGUCCCAGCCUCCUCGCUGGCGCCGGCUGGGCAACAUUCCGAGGGGACCGUCCCCUCGGUAAUCGCGAAUGGGGCCCA [G73C A83G] here?
Answer: 0.17

Question: Which self-cleavage does the source give for GGCCGGCAUGGUCCCAGCCACCUCGCUGGCGCCGGCUGGGCAACAUUCCGAGGGGACCGUCCCCUCGGUAAUGGCGGAUGGGACCCA [U20A A77G] here?
Answer: 0.0723

Question: For GGCCGGCAUGGUCCCAGCCUCCUCGCUGGCGCCGGCUGGGCAACAUUCUGAGGCGACCGUCCCCUCGGUAAUGGCGAAUGGGACCCA [C49U G54C], which self-cleavage is on record?
Answer: 0.856

Question: With GGCCGGCAUGGUCCCAGCCUCCUCGCUGGCGCGGGCUGGGCAACAUUCCGAGGGGACCGUCCCAUCGGUAAUGGCGAAUGGGACCCA [C33G C64A] as the variant, how does the self-cleavage read?
Answer: 0.213

Question: With GGCCGGCAUGGUCCCAGCCUCCUCGCUGGCGCCGGCUGGGCAACAUUCCGAGGGGACCGUCCCCUCGGUAUUGGCGAACGGGACCCA [A71U U79C] as the variant, how does the self-cleavage read?
Answer: 0.314

Question: With GGCCGGCAUGGUCCCAGCCUACUCGCUGGCGCCGGCUGGGCAACAUUCCGAGGGGACCGUCCCCUCGGUAAUGGCGAAUGGGCCCCA [C21A A83C] as the variant, how does the self-cleavage read?
Answer: 0.0378

Question: For GGCCGGCAAGGUCCCAGCCUACUCGCUGGCGCCGGCUGGGCAACAUUCCGAGGGGACCGUCCCCUCGGUAAUGGCGAAUGGGACCCA [U9A C21A], which self-cleavage is on record?
Answer: 0.0739

Question: For GGCCGGCAUGGUCCCAGGCUCCUCGCUAGCGCCGGCUGGGCAACAUUCCGAGGGGACCGUCCCCUCGGUAAUGGCGAAUGGGACCCA [C18G G28A], which self-cleavage is on record?
Answer: 0.0346

Question: Which self-cleavage does the source give for GGCCGGCAUGGUCCCAGCCUCCUCGCUGGCGCAGGCUGGGCAACAUUCCGACGGGACCGUCCCCUCGGUAAUGGCGAAUGGGACCCA [C33A G52C] here?
Answer: 0.284

Question: For GGCCGGCAUGGUCCCAGCCUCCUCGCUGGCGCCGGCUGGGCAACAUUCCGAUGGGACUGUCCCCUCGGUAAUGGCGAAUGGGACCCA [G52U C58U], which self-cleavage is on record?
Answer: 0.898

Question: For GGCCGGCAUGGUCCCAGCCUCCUCGCUGGCGCCGUCUGGGCAACAUUCCGAGGGGACCGUCCCCUCGGUAAUUGCGAAUGGGACCCA [G35U G73U], which self-cleavage is on record?
Answer: 0.19

Question: For GGCCGGCAUGGUCCCAGCCUCGUCGCUGGCGCCGGCUGGGCAGCAUUCCGAGGGGACCGUCCCCUCGGUAAUGGCGAAUGGGACCCA [C22G A43G], which self-cleavage is on record?
Answer: 0

Question: For GGCCGGCAUGGUCCCAGCCUCCUCGCUGGCGCCGGCUGGGCAACAUUCCGAGGGGACCGUCUCCUCGGUAAUGGCGAAGGGGACCCA [C62U U79G], which self-cleavage is on record?
Answer: 0.831

Question: With GGCCUGCAUGGUCCCAGCCGCCUCGCUGGCGCCGGCUGGGCAACAUUCCGAGGGGACCGUCCCCUCGGUAAUGGCGAAUGGGACCCA [G5U U20G] as the variant, how does the self-cleavage read?
Answer: 0.111

Question: With GGCCGGCAUGGUCCCAGCCUCCUCGCUGGCGCCCGCUGGGCAACAUUCCGAGGGGACCGUCCCCUCGGUAAUGGCGGAUGGGACCCA [G34C A77G] as the variant, how does the self-cleavage read?
Answer: 0.161

Question: Which self-cleavage does the source give for GGCCGGCAUGGUCCAAGCCUCCUCGCUGGCGCCGGCUGGGCAACAUUCCGAGGGGACCGUCCCCUCGGUAGUGGCGAAUGGGACCCA [C15A A71G] here?
Answer: 0.443

Question: For GGCCGGCAUGGUCCCAGCCUCCUCGCUGGUGCCGGCUGGGCAACAUUCCGAGGGGACCGUCCCCUGGGUAAUGGCGAAUGGGACCCA [C30U C66G], which self-cleavage is on record?
Answer: 0.607

Question: For GGCCGGCAUGGUCCCAGCCUCCUCGCUGGCGCCGGCUGGGCAACAUUCCGAGGGCACCGUCCCCUCGGUAAUGGCGACUGGGACCCA [G55C A78C], which self-cleavage is on record?
Answer: 0.111

Question: Which self-cleavage does the source give for GGCCGGCAUGGUCCCAGCCUCCUCGCUGGCGCCGGCUGGGCAACAUUCCGACGGGACCGUCCCCUCGGUCAUGGCGAAUGGGACCCA [G52C A70C] here?
Answer: 0.85

Question: With GGCCGGCAUGUUCCCAGCCUCCUCGCUGGCGCCGACUGGGCAACAUUCCGAGGGGACCGUCCCCUCGGUAAUGGCGAAUGGGACCCA [G11U G35A] as the variant, how does the self-cleavage read?
Answer: 0.241
